Biological target: Pcc1–Kae1 binary complex from Pyrococcus abyssi (Pyrococcus abyssi (strain GE5 / …, UniProt Q9V1Z9,Q9UXT7))
Assay: gel filtration

Pcc1–Kae1 binary complex from Pyrococcus abyssi (Pyrococcus abyssi, sequence (Q9V1Z9 whole entry, chain 1 of 2): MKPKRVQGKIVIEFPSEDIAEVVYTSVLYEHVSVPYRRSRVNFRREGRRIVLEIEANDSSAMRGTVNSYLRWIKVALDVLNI
Pcc1–Kae1 binary complex from Pyrococcus abyssi (Pyrococcus abyssi, sequence (Q9UXT7 whole entry, chain 2 of 2): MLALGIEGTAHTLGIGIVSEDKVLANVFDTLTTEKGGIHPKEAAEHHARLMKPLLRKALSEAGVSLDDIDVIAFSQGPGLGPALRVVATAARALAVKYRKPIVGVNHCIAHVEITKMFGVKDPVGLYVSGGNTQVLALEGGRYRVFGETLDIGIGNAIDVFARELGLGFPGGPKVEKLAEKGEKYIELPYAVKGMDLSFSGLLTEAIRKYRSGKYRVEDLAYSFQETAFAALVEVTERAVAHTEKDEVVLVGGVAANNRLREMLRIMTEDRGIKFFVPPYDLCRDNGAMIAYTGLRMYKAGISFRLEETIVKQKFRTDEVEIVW

binding result: binds
B1: Bud32–Cgi121 binary complex from Pyrococcus abyssi (protein)
chain 1: MKLIKQGAEAKIYLAEFSELYFDYPIKVIVKERIKKRYRIPEIDLKLRKERTIREARILRRAKEFGVNVPYVFEVDTKNMIIVMEYIEGERLKELLEKLPMEERLKVCREVGRQIGKLHEAGIVHGDLTTSNMILREGKVYFIDFGLAEFDDTIEAQGVDLHLLKRAMESTHYKWFERGFEEVLKGYIEIRGEDKGREIREKIREIELRGRYRERSWITQ
chain 2: MTPKFKNFKHDNSGQVETYLFEVISKYTMLEIKTKFGKLCIAKVKLASESIERALNLCNDNCQIVSAKCHEEVIFATILAIKAFSSGRNTAKTIKGEILLRLAGVKQIKDAIKIIGARKGENLIIYFGVSDPCSSLKDFISSLGLREEPLKPCDEDEVKRGFERAAIIEAL

From publication PMC3814370 (2013)
